The values that follow come from article PMC3734830 (Cell Death & Disease, 2013).

This assay concerns the target cytochrome c (human (endogenous in SK-N-BE), UniProt P99999 1-105). The assay is described as follows: co-IP.

cytochrome c, sequence (P99999 whole entry): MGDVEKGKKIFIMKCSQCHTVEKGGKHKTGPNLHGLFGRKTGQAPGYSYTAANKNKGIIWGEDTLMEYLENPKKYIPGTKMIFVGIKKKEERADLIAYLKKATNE

B1: Neuroglobin (natural protein, human (endogenous in SK-N-BE), UniProt Q9NPG2 1-151, looked up)
chain: MERPEPELIRQSWRAVSRSPLEHGTVLFARLFALEPDLLPLFQYNCRQFSSPEDCLSSPEFLDHIRKVMLVIDAAVTNVEDLSSLEEYLASLGRKHRAVGVKLSSFSTVGESLLYMLEKCLGPAFTPATRAAWSQLYGAVVQAMSRGWDGE
On to B1, for which the “fold NGB–cytochrome c association in mitochondria after E2” value is around 3.3 fold.
